Where a chain is given by its changes, count along the chain named. Names and notes keep the numbering of the source. Bounds are passed on as bounds.

The term koff denotes the rate constant with which the complex falls apart. The Kd is a measure of binding affinity in units of concentration. Read a high Kd as lower affinity. Usually kon stands for a measure of how fast the partners come together. High values mean faster complex formation, low ones slower complex formation.

T1: IL-23R extracellular domain (human, UniProt Q5VWK5 24-355)
T1 construct: Methods print IL-23/Fc Chimera for the coated receptor; also called IL-23R-HIS; IL-23/Fc Chimera (so in the source); not shown: Fc (R&D Systems chimera) or HIS tag (in-house IL-23R-HIS)
T1 sequence: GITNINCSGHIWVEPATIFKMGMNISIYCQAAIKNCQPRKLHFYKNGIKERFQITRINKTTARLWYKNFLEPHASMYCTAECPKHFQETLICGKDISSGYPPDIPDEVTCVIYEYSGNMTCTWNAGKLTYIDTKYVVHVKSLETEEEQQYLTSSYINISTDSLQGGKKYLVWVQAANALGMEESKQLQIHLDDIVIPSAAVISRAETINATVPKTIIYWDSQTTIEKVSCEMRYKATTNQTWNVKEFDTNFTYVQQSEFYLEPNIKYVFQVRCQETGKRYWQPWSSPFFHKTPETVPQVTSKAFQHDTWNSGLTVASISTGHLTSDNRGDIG

B1: Antibody 176 (antibody, human IgG1, kappa)
heavy: not shown
light: DIQMTQSPSSVSASVGDRVTITCRASQSISINLHWYQQKPGKAPKLLIYFASQSISGVPSRFSGSGSGTDFSLTINSLQTEDFATYYCQQSNSFPLTFGGGTKVEIKRTVAAPSVFIFPPSDEQLKSGTASVVCLLNNFYPREAKVQWKVDNALQSGNSQESVTEQDSKDSTYSLSSTLTLSKADYEKHKVYACEVTHQGLSSPVTKSFNRGEC
B2: Antibody 178 (antibody, human IgG1, kappa, V domains shown)
VH: EVQLVQSGAEVKKPGATVKISCKASGYALSDYYLHWVRQAPEKGLEWMGWIDPENGDTEYAPKFQGRVTITADTSTDTGYLELSSLRSEDTAVYYCAANKELRYFDVWGQGTLVTVSS
VL: DIQMTQSPSSVSASVGDRVTITCRASQSISINLHWYQQKPGKAPKLLIYFASQSISGVPSRFSGSGSGTDFSLTINSLQTEDFATYYCQQSNSFPLTFGGGTKVEIKR
B3: scFv CP-A6 (scFv)
scFv: QVQLVQSGAEVKKPGASVKVSCKASGYTFTDYYLHWVRQAPGQGLEWMGWIDPENGDTEHAPKFQGRVTMTTDTSTSTAYMELRSLRSDDTAVYYCNANKELRYFDVWGQGTMVTVSSGGGGSGGGGSGGGGSEIVMTQSPATLSVSPGERATLSCRASQSISINLHWYQQKPGQAPRLLIYFASQSISGIPARFSGSGSGTEFTLTISSLQSEDFAVYYCQQSNSFPLTFGGGTKVEIKR
notes: scFv-80 variant: VH Y59H; not shown: proprietary C-terminal FLAG tag
B4: scFv CU-A6 (scFv)
scFv: B3 scFv with F29L, H60Y, T112A, S196F
notes: scFv-80 variant: VH F29L, T107A; VL S63F; not shown: proprietary C-terminal FLAG tag
B5: IL-23 mutant D265A (ligand)
chain: IWELKKDVYVVELDWYPDAPGEMVVLTCDTPEEDGITWTLDQSSEVLGSGKTLTIQVKEFGDAGQYTCHKGGEVLSHSLLLLHKKEDGIWSTDILKDQKEPKNKTFLRCEAKNYSGRFTCWWLTTISTDLTFSVKSSRGSSDPQGVTCGAATLSAERVRGDNKEYEYSVECQEDSACPAAEESLPIEVMVDAVHKLKYENYTSSFFIRDIIKPDPPKNLQLKPLKNSRQVEVSWEYPDTWSTPHSYFSLTFCVQVQGKSKREKKARVFTDKTSATVICRKNASISVRAQDRYYSSSWSEWASVPCSGSGSSRGGSGSGGSGGGGSKLRAVPGGSSPAWTQCQQLSQKLCTLAWSAHPLVGHMDLREEGDEETTNDVPHIQCGDGCDPQGLRDNSQFCLQRIHQGLIFYEKLLGSDIFTGEPSLLPDSPVGQLHASLLGLSQLLQPEGHHWETQQIPSLSPSQPWQRLLLRFKILRSLQAFVAVAARVFAHGAATLSP
B6: IL-23 mutant R266A (ligand)
chain: B5 chain with A265D, R266A
B7: human IL-12p40 (ligand)
chain: IWELKKDVYVVELDWYPDAPGEMVVLTCDTPEEDGITWTLDQSSEVLGSGKTLTIQVKEFGDAGQYTCHKGGEVLSHSLLLLHKKEDGIWSTDILKDQKEPKNKTFLRCEAKNYSGRFTCWWLTTISTDLTFSVKSSRGSSDPQGVTCGAATLSAERVRGDNKEYEYSVECQEDSACPAAEESLPIEVMVDAVHKLKYENYTSSFFIRDIIKPDPPKNLQLKPLKNSRQVEVSWEYPDTWSTPHSYFSLTFCVQVQGKSKREKKDRVFTDKTSATVICRKNASISVRAQDRYYSSSWSEWASVPCS
notes: p40 monomer; also called p40 subunit
B8: human IL-23 (ligand)
chain 1: B7 chain
chain 2: RAVPGGSSPAWTQCQQLSQKLCTLAWSAHPLVGHMDLREEGDEETTNDVPHIQCGDGCDPQGLRDNSQFCLQRIHQGLIFYEKLLGSDIFTGEPSLLPDSPVGQLHASLLGLSQLLQPEGHHWETQQIPSLSPSQPWQRLLLRFKILRSLQAFVAVAARVFAHGAATLSP
notes: Recombinant (Ebioscience); HIS-tagged in flow cytometry, biotinylated in some assays; also called hIL-23; rhIL-23
B9: human IL-12 (ligand)
chain 1: B7 chain
chain 2: RNLPVATPDPGMFPCLHHSQNLLRAVSNMLQKARQTLEFYPCTSEEIDHEDITKDKTSTVEACLPLELTKNESCLNSRETSFITNGSCLASRKTSFMMALCLSSIYEDLKMYQVEFKTMNAKLLMDPKRQIFLDQNMLAVIDELMQALNFNSETVPQKSSLEEPDFYKTKIKLCILLHAFRIRAVTIDRVMSYLNAS
notes: Recombinant (Peprotech); FLAG-tagged IL-12 in the flow cytometry assays, biotinylated in the IL-12Rβ2 assay; also called hIL-12

In assay [1] the target is B9. The assay is described as follows: ELISA. The gist of the method: (§1)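 Cytokine at 1 μg/mL in carbonate buffer pH 9.6 was coated overnight at 4° C onto Maxisorp plates and blocked with 1% BSA in PBS for 1 hour at 25° C. Antibody titrations were bound for 1 hour at 25° C, then detected with goat anti-human IgG or anti-murine immunoglobulin HRP (1:2000, 1 hour). TMB was developed and stopped with 1M HCl. The binding result is absorbance at 450 nm (reference 620 nm).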
In general terms: In an ELISA, binding on a coated surface is turned into a signal by an enzyme label.

Assay [2] has as its target B8. Nature of the assay: ELISA. The gist of the method:
as §1

Assay [3] concerns the target B8. Nature of the assay: SPR screen, crude scFv captured via FLAG. The gist of the method: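 Crude periplasmic FLAG-tagged scFvs were captured on an anti-FLAG surface (approx. 100 or 50 RU) in HBS-EP+ at 25 °C. IL-23 was injected for 120 s at 30 μl/min, with 200 s dissociation. Referenced sensorgrams were fitted to a 1:1 Langmuir model for ka, kd and KD.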
Assay [4] concerns the target B8. Nature of the assay: SPR, purified scFv captured via FLAG; LOD estimated 1 × 10^-5 s^-1. The method, then: (§2) A number of the scFv variants presented in TABLE 4 were selected for full characterization of binding kinetics, encompassing a broad range of mutation profiles and binding affinities. Large-scale protein expressions were carried out for each scFv. The expressed scFvs were purified as monomeric proteins and tested for binding against IL-12 and IL-23 by SPR (TABLE 5).
(§3) Purified scFvs were subjected to full kinetic characterization using a BIAcore T100 biosensor (GE Healthcare). Approximately 10,000 RU of the proprietry FLAG-specific capture molecule was immobilized on a CM5 Series S Sensor chip, using standard amine coupling chemistry in flow cells (FC) 1 and FC2 (or alternatively FC3 and FC4) of the BIAcore T100 Biosensor. The running buffer used was HBS-EP+ (BIAcore) and interactions measured at 30° C. or 35° C. to promote differentiation of scFvs with very similiar kd values. Peak purified FLAG-tagged scFvs (prepared as described in the previous paragraph) were diluted to 10 nM in running buffer, and captured on FC2 at a flow rate of 10 μl/min in order to capture 50 RU of scFv (typically 60 sec was sufficient to capture this level of tagged scFv). After an appropriate stabilization period, the target, IL-12 or IL-23, were passed over FC1 and FC2 at a flow rate of 60 μl/min at concentrations ranging from 81 nM to 0.13 nM (using a five-fold dilution of IL-12) and 81 nM to 1 nM (using a three-fold dilution of IL-23). The contact time for association was 180 sec and dissociation measured for 10 mins for the highest concentration and 300 sec for all other concentrations in the series. The sensorgram data from FC2 was subtracted from FC1 and a buffer only control. The curves were fitted using a 1:1 Langmuir equation to generate the kₐ, kd and KD values.

Assay [5] addresses B9. Nature of the assay: SPR, purified scFv captured via FLAG. The method, then: as §2, §3
The target in assay [6] is B8. The assay is described as follows: SPR, purified scFv captured via FLAG. The method, then: as §2, §3
Another assay addresses T2, IL-12Rβ1/Fc Chimera (human, UniProt P42701 25-545).
T2 construct: not shown: Fc of the bought R&D Systems chimera
The assay is described as follows: ELISA, IL-12Rβ1 coated. How it is done:
(§4) The plate was then washed three times with wash buffer. The wells were then blocked by adding 200 μl of blocking buffer to each well and incubating the plate at 25° C. for 1 hour. The supernatant was diluted in antibody diluent sufficient to generate a titration curve and 100 µl was added to wells then incubated for 1 hour at 25° C. The plate was then washed as previously described and 100 μl of Monoclonal Anti-FLAG® M2-HRP (Sigma-Aldrich®) at 1:1000 in antibody diluent was used to detect bound cytokine. After incubation at 25° C. for 1 hour the plate was washed again as previously described. 100 μl TMB substrate solution (Sigma-Aldrich®) was added to each well and the colour allowed to develop for 5 minutes. 100 μl of 1M HCl was added to terminate the colour development reaction and absorbance was determined at 450 nm (ref. 620 nm).

The target of assay [7] is T1, IL-23R extracellular domain. The assay is described as follows: ELISA, IL-23R coated. How it is done:
as §4

The target of assay [8] is T3, IL-12Rβ1 on stably transfected Jurkat cells (human, UniProt P42701 24-662).
T3 construct: whole, on cells; Cell line negative for IL-12Rβ2 and IL-23R; also called IL-12Rβ1 Jurkat cell line
The assay is described as follows: flow cytometry; binding blocked by Antibody 202.1. The gist of the method: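 Jurkat cells stably transfected with IL-12Rβ1 were used. FLAG- or HIS-tagged cytokine at 250 ng/ml was preincubated with antibody (10 to 0.01 μg/ml, half-log dilutions) for one hour at 37° C, then cells at 10⁶/ml were added for a further hour. Cells were washed in PBS/10% FBS. Cell-bound cytokine was detected with phycoerythrin anti-HIS or FITC anti-FLAG on a Beckman-Coulter Quanta, and blocking of receptor binding was the read-out.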
For orientation: Flow cytometry measures light scatter and fluorescence of single cells or particles in a stream.

As for B1, the binding result in the assay with human IL-12 [1] and in the assay with human IL-23 [2] was “binds” throughout.

For the molecule B2, the binding result in the assay with human IL-12 [1] and with human IL-23 [2] was “binds” in each case.

For B3, the koff with human IL-23 [3] was 0.00019 s⁻¹; with human IL-23 [4], less than 1e-05 s⁻¹; with human IL-12 [5] it was 0.00012 s⁻¹. The dissociation constant (Kd) with human IL-12 [5] was 0.061 nM. In addition, the association rate constant (kon) in the assay with human IL-12 [5] worked out at 2e+06 M⁻¹ s⁻¹; with human IL-23 [6] it was 310000 M⁻¹ s⁻¹.

For the molecule B4, the dissociation rate constant (koff) was 0.00019 s⁻¹ with human IL-23 [3], less than 1e-05 s⁻¹ with human IL-23 [4] and 9.7e-05 s⁻¹ with human IL-12 [5]. Besides, in the assay with human IL-12 [5], binding was characterised by a dissociation constant (Kd) of 0.048 nM. The results for the kon with human IL-12 [5] and in the assay with human IL-23 [6] were 2e+06 M⁻¹ s⁻¹ and 300000 M⁻¹ s⁻¹, respectively.

On to B5, for which the binding result (with IL-12Rβ1/Fc Chimera; in assay [7]) was “binds” throughout.

Regarding B6, the binding result (in the assay with IL-12Rβ1/Fc Chimera; in assay [7]) was “binds” each time.

With B7, in [8], the binding result is reported as “binds”.

B8: in assay [8], the binding result is “binds”.

Turning to B9, the binding result in assay [8] is on record as “binds”.

These data come from patent US20110262445A1 (CEPHALON AUSTRALIA, published 2011).
